The text below walks through data of patent publication US20220372137A1 (OXFORD BIOTHERAPEUTICS, published 2022).

A word on the EC50 (read off the curve): it is the concentration giving half of the maximal effect. By Kd is commonly meant the equilibrium constant for the complex coming apart. A lower Kd goes with higher affinity. For orientation: koff means a measure of how fast the partners let go of each other. The term kon denotes the second-order rate constant of association. High values mean fast association, low ones slow association.

Assay [1] addresses T1, human SLAMF6 expressed on the cell surface (Raji cells, human PBMCs, T cells) (human, UniProt Q96DU3 22-332).
T1 construct: Endogenous SLAMF6 on human cells; also called NTB-A; CD352
T1 sequence: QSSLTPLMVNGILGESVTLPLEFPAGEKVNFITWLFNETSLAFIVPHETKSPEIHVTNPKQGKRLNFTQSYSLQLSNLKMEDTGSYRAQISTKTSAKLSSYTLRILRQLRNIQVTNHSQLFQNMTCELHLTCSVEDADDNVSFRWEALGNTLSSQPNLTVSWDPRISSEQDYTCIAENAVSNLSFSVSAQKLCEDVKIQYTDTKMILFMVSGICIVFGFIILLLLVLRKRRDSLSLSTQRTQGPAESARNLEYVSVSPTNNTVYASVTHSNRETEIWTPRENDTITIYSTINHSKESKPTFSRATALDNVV
The experiment in a line: flow cytometry on SLAMF6-expressing Raji cells, goat anti-mouse secondary antibody. The method, then: […] Raji cells were placed in each well of a 96 well plate and washed 1× with FACS buffer (DPBS, 2% FBS). The cells were pelleted by spinning for 5 min at 1200 rpm. The pellet was washed 1× with FACS buffer (DPBS, 2% FBS) and again pelleted by spinning for 5 min at 1200 rpm and resuspended in FACS buffer. The test antibody were diluted to 30 nM/l in FACS buffer and increasing amounts as shown in FIG. 4 added to each well which was incubated for 30 min on ice. The cells were then washed 1× with FACS buffer (DPBS, 2% FBS) and pelleted, washed and resuspended in FACS buffer. Secondary goat-anti-mouse antibody was diluted to 1 μg·ml and 100 μl added to each well the plate was incubated for 30 min on ice then washed 1× with FACS buffer (DPBS, 2% FBS). The cells were pelleted and resuspended in 200 ul FACS buffer. Samples were read using the Guava Easycyte Plus HT flow cytometer and results analysed using the Guava Cytosoft software suite.
In general terms: Flow cytometry measures light scatter and fluorescence of single cells or particles in a stream.

Assay [2] has as its target T1, human SLAMF6 expressed on the cell …. The experiment in a line: flow cytometry on human PBMCs pre-blocked with 300 nM SLAMF6 ECD-mIgG2a Fc fusion protein, goat anti-human IgG-RPE secondary antibody. The method, then:
Cryopreserved human PBMCs were thawed and washed once by suspension in FACS buffer (DPBS with 2% FCS) followed by centrifugation for 5 minutes at 1200 rpm to pellet cells and discarding of supernatant (same method used for subsequent washes). The cells were dispensed into a 96-well assay plate at 100,000 cells per well in FACS buffer before being washed once more. Cells were then blocked with SLAMF6 ECD-mIgG2a Fc fusion protein at 100 nM or 300 nM for 1 hr for SLAMF6 receptor blocking in 100 μl FACS buffer on ice for 1 hour before being washed. Humanized Hu_1B3 antibody or human IgG1 Isotype control at top concentration of 10 nM and a titration by serial dilution of 1 in 3, was then added to the blocked PBMCs and the cells were incubated for 1 hr on ice before being washed twice. The secondary antibody, goat anti-human-IgG-RPE (Southern Biotech, Ref: 2040-05) at a concentration of 1 μg/mL in FACS buffer, was then applied to the treated cells for 30 minutes on ice. […] Mean fluorescence intensity for the secondary antibody was determined for each sample using an Attune NxT Flow Cytometer (ThermoFischer Scientific) in a 96-well plate format according to industry standard protocols, and the raw data was analyzed using FlowJo analysis software.

Assay [3] has the same target. The experiment in a line: cell-based or functional assay.
The target in assay [4] is T2, Antigen flowed over the chip in the Biacore experiment (SLAMF6, construct not stated) (Homo sapiens (Human), UniProt Q96DU3 22-226, limits assumed).
T2 sequence: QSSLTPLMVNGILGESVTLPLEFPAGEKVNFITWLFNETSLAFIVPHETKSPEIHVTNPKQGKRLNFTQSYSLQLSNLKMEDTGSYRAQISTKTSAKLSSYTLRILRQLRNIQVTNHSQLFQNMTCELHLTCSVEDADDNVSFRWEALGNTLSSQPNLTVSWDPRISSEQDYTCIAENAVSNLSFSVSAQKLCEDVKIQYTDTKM
The experiment in a line: SPR, Biacore T-200 at 25 °C; antibody captured on goat anti-human IgG, antigen flowed over. The method, then:
Flow cells 2, 3 and 4 of the CM5 chip were coated with maximum amounts 500 RU of goat anti-human IgG. Test Ab were captured on flow cells 2, 3 and 4. Flow cell 1 was kept blank and used for reference subtraction. Antigen was flowed over the chip. Binding of antigen to the antibodies was monitored in real time. From the observed kₒₙ and koff, KD was determined.

B1: parental murine 1B3 antibody (antibody, V domains shown)
VH: QVQLKQSGAELVRPGTSVKVSCKASGYAFTNYLIEWVKQRPGQGLEWIGVINPGSGGTNYNEKFKDKATLTADKSSNTAYMQLSSLTSDDSAVYFCARRGWDYFDYWGQGTTLTVSS
VL: QIVLTQSPALMSTSPGEKVTMTCSASSSVSYIYWFQQKPGSSPKPWIYRTSNLASGVPARFSGSGSGTSYSLTISSMEAEDAATYYCQQWDNNPYTFGGGTKLEIK
notes: also called antibody 1B3; mouse 1B3
As to B1, in assay [1], the “EC50 (read off the curve)” value was roughly 0.2 nM.

B2: humanised antibody Hu_1B3 (antibody, human IgG1, kappa, L234A L235A, V domains shown)
VH: QVQLVQSGAEVKKPGASVKVSCKASGYAFTNYLIEWVRQAPGQGLEWIGVINPGSGGTNYNEKFQGRVTLTADKSISTAYMELSRLRSDDTAVYYCARRGWDYFDYWGQGTLVTVSS
VL: DIQLTQSPSSLSASVGDRVTITCQASQDVSYIYWYQQKPGKAPKPWIYRTSNLATGVPSRFSGSGSGTDYTFTISSLQPEDIATYYCQQWDNNPYTFGQGTKLEIKR
notes: It was captured or detected with anti-human IgG and compared with a human IgG1 isotype control; also called humanised 1B3 antibody; humanized Hu_1B3 antibody
On to B2, for which, in assay [2], the “EC50 (read off the curve)” value was roughly 0.4 nM. Also, in assay [3], the “Granzyme B release from activated T cells (plate-coated antibody plus OKT3, ELISA), EC50” value was 0.51 µg/mL and the “upregulation of intracellular perforin in CD8+ T cells (flow cytometry), EC50” value was determined as 0.44 µg/mL. In assay [4], the Ka is 5.8e+08 M⁻¹, the Kd turned out to be 1.72 nM, the koff came to 0.000932 s⁻¹ and the on-rate (kon) was found to be 541000 M⁻¹ s⁻¹.
